Reference: US11541126B1, “Anti-ASGR1 antibody TLR8 agonist comprising conjugates and uses thereof” (Silverback Therapeutics, Inc., priority 2020, dated 2023)

T1: rat CLEC10A ECD (Rattus norvegicus, UniProt P49301)
T1 construct: His-tagged rat CLEC10A ECD (R&D Systems) was immobilized to OCTET® Penta-His biosensors; purchased R&D Systems
T1 sequence (P49301 59-306 limits assumed): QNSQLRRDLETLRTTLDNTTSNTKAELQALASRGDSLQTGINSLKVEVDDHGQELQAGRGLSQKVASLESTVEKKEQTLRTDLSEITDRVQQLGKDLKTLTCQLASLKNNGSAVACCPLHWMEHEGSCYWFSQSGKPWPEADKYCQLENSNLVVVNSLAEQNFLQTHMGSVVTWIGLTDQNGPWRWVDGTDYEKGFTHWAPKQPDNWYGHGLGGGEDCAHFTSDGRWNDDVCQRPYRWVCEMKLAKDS

T2: human ASGR1 extracellular domain (ECD) (Homo sapiens, UniProt P07306)
T2 sequence (P07306 62-291 limits assumed): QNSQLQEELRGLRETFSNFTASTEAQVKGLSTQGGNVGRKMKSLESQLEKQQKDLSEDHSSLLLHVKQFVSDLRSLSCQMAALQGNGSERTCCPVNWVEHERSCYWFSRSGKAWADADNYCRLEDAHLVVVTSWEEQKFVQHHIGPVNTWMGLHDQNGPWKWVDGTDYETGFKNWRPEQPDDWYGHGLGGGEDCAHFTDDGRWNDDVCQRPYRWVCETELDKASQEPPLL

T3: rat ASGR1 (Rattus norvegicus, UniProt P02706)
T3 construct: expressed in transfected cells; host or cells: CHO-S
T3 sequence (P02706 1-284): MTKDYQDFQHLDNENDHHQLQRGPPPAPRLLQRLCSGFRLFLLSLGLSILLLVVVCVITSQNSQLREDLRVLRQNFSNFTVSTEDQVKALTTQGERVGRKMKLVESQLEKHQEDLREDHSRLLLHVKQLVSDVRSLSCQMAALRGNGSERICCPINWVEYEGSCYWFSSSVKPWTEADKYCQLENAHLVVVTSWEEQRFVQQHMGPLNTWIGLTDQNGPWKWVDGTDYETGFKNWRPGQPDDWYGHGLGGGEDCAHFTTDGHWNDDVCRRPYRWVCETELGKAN

B1: hzL4L-7: "humanized anti-ASGR1 antibodies hzL4L-7 and hzL4L-14 as compared to parent mouse anti-ASGR1 antibody L4L" (antibody, V domains shown)
VH: QVQLQESGPGLVKPSQTLSLTCTVSGYSISSDYAWNWIRQHPGKGLEWIGYISYSGSTRYNPSLKSRVTITRDTSKNQFSLKLSSVTAADTAVYYCARRYRYDEGYGMDYWGQGTTVTVSS
VL: DIQMTQSPSSLSASVGDRVTITCRASENIYSNLAWYQQKPGKAPKLLIYAATNLADGVPSRFSGSGSGTDFTLTISSLQPEDFATYYCQHFWGTPPWTFGGGTKVEIK
modifications: human IgG1/kappa constant regions; Synthetic sequence hzL4.6L VH G27Y, S70T, V71R; Synthetic sequence hzL4L VL
B2: hzH8K-1: "humanized anti-ASGR1 antibodies hzH8K-1 and hzH8K-10 as compared to parent mouse anti-ASGR1 antibody H8K" (antibody, V domains shown)
VH: QVQLQESGPGLVKPSQTLSLTCTVSGGSISSDYAWNWIRQHPGKGLEWIGYRSYRGSTSYNPSLKSRVTISVDTSKNQFSLKLSSVTAADTAVYYCARRGYYGSSSHWYFDVWGQGTTVTVSS
VL: DIQMTQSPSSLSASVGDRVTITCRASENIYSYLAWYQQKPGKAPKLLIYNAKTLAEGVPSRFSGSGSGTDFTLTISSLQPEDFATYYCQHHYGTPLTFGGGTKVEIK
modifications: Synthetic sequence hzH8K VH; Synthetic sequence hzH8K VL

Experiments:
rat CLEC10A ECD = target: T1, rat CLEC10A ECD; test: OCTET avidity binding to immobilized rat CLEC10A ECD; settings: for Binding signal to rat CLEC10A ECD: in words; for Response, binding to rat CLEC10A ECD: test antibody at 25 μg/mL
Protocol: Analysis of binding to the rat CLEC10A ECD was performed using the OCTET® Red 96 instrument (ForteBio). His-tagged rat CLEC10A ECD (R&D Systems) was immobilized to OCTET® Penta-His biosensors and subjected to avidity binding of test antibodies in kinetics buffer (PBS+1% BSA+0.2% Tween20+0.9 mM CaCl2) at pH 7.4) in the following steps: (1) hydration of Penta-His biosensors in kinetics buffer (10 min); (2) regeneration and neutralization of Penta-His biosensor in 10 mM glycine-HCl (pH 1.5) and kinetics buffer, respectively in triplicate; (3) baseline acquisition (30 s); (4) immobilization of rat CLEC10A ECD to Penta-His biosensors at a concentration of 10 μg/mL (180 s); (5) second baseline acquisition (60 s); (6) association of test antibody at 25 μg/mL (60 s); (7) dissociation in kinetics buffer (60 s).
The interactions of test mAbs with rat CLEC10A ECD was analyzed using the OCTET® Data Analysis Software 9.0 (ForteBio).

[1] = target: T2, human ASGR1 extracellular domain (ECD); test: Effect of calcium on binding to human ASGR1 ECD (OCTET); set-up: key to Ca^2+ Sensitivity during: Association / Ca^2+ Sensitivity during: Dissociation / Ca^2+ Sensitivity: N = No; Y = Yes
Protocol: The ability of anti-human ASGR1 antibodies of this disclosure to bind to human ASGR1 in the presence or absence of calcium in binding buffer was examined. Briefly, ASGR1 antibodies were bound to immobilized human ASGR1 extracellular domain (ECD) at saturating levels and subsequently dissociated under three different conditions as follows: (a) binding and dissociation with buffer containing calcium (PBS+1% BSA+0.2% Tween20+0.9 mM CaCl2), pH 7.4); (b) binding with buffer containing calcium and dissociation with buffer lacking calcium; and (c) binding and dissociation with buffer lacking calcium. Analysis of ASGR1 antibody binding to human ASGR1 ECD was performed using the OCTET® Red 96 instrument and analyzed using the OCTET®Data Analysis Software 9.0 (ForteBio). His-tagged human ASGR1 ECD was immobilized to OCTET® Penta-His biosensors and ASGR1 antibodies were subjected to avidity binding under the conditions described above. Association with the ASGR1 ECD was measured by the rate of and increase in magnitude of signal response at a given antibody concentration. Dissociation from the ASGR1 ECD was measured as the rate of loss in signal upon removal of the antibody and further incubation with or without Ca^2+. […] Also tested were humanized antibodies hzH8K-1 and hzL4L-7.
Further analysis of the antibodies of this disclosure was to determine whether the presence of calcium was needed for binding (i.e., during association) of the antibodies to human ASGR1 ECD. […]

[2] = system: human PBMCs cultured with ASGR1-expressing tumor cell line HepG2; test: TNF-α production by human PBMC co-cultured with HepG2 (AlphaLISA); format: cell-based; settings: PBMC:HepG2 5:1, 24 hours
Protocol: The effect on TNF-α production by human PBMCs co-cultured with ASGR1 expressing HepG2 tumor cells and in the presence of anti-ASGR1-TLR8 agonist conjugates was examined. An increase in TNF-α production by human PBMCs would indicate that myeloid cells are being activated. Briefly, peripheral blood mononuclear cells (PBMC) were isolated from normal human donor blood using SEPMATE™-50 PBMC Isolation Tubes ([…] Technologies) according to manufacturer's instructions. Isolated PBMC were cultured with the ASGR1-expressing tumor cell line HepG2 or the ASGR1-negative cell line HEK 293 at a 5:1 ratio in the presence of titrated concentrations of anti-ASGR1-TLR8 agonist conjugates (G2D-Compound 2.14, J4F-Compound 2.14, K2E-Compound 2.14, L4L-Compound 2.14, hzL4L-7-Compound 2.14, hzL4L-14-Compound 2.14, H8K-Compound 2.14, hzH8K-1-Compound 2.14, and hzH8K-10-Compound 2.14, as well as control conjugates comprised of ASGR1-mAb-A-Compound 2.14, ASGR1-mAb-B-Compound 2.14, ASGR1-mAb-C-Compound 2.14, anti-digoxin mAb-Compound 2.14, and unconjugated antibody controls). After 24 hours, cell-free supernatants were collected and stored at −80° C. prior to analysis. TNF-α levels in the cell-free supernatants were quantified using the TNF-α (human) AlphaLISA® Detection Kit (Perkin Elmer) according to manufacturer's instructions.

rat ASGR1 = target: T3, rat ASGR1; test: Cell binding to rat ASGR1 transiently expressed by CHO-S cells (GUAVA); settings: in words
Protocol: Anti-human ASGR1 antibodies of this disclosure were examined for cross-reactivity with Cynomolgus macaque and rat ASGR1. Briefly, sequence encoding Cynomolgus macaque or rat ASGR1 was transiently transfected into CHO-S cells. Transfected cells were before performing cell binding assay. A total of about 1.5×10^4 transfected cells/well were added to 96-well V-bottom assay plate, incubated at 37° C., 5% CO2 for 48-72 hours, and then washed with culture medium before adding 100 μl of each ASGR1 antibody at different concentrations starting from 100 nM and 3-fold dilutions to a total of eight wells. The cells with antibody were incubated for 40 minutes at 4° C., then washed three times with 200 μl of fresh culture medium. To each well was added 50 μl PE conjugated goat anti-human Fc (SouthemBiotech) at 1:200 dilution in culture medium and then incubated at 4° C. for 20 minutes. After washing the plate once, the treated cells were resuspended in 200 μl culture medium and then the stained cells were analyzed on GUAVA® using Incyte software.

Molecule | Binding signal to rat CLEC10A ECD (rat CLEC10A ECD) | Response, binding to rat CLEC10A ECD (rat CLEC10A ECD) | Ca^2+ Sensitivity [1] | Ca^2+ Sensitivity during: Association [1] | Ca^2+ Sensitivity during: Dissociation [1] | Sensitivity to calcium (difference in binding signal after dissociation >±10%) ([1]; in words) | TNF-α production from human PBMCs [2] | Cross-reactivity with rat ASGR1 (rat ASGR1)
B1 | No observable binding signal | — (Antibodies tested with response of <0.02 nm were below the limit of detection (—)) | N | N | N | lacking sensitivity to calcium | more efficient at inducing TNF-α production as compared to the parent antibody conjugates | not rat cross-reactive
B2 | even less above background binding | 0.0495 nm | N | N | N | – | more efficient at inducing TNF-α production as compared to the parent antibody conjugates | not rat cross-reactive
